According to the RNAGym collection of RNA variant scans (doi:10.1021/acssynbio.7b00057):

B1: Pistol ribozyme (parent)
chain: GGGUCGUUGUUCCAUAAUCGCGUGGAUAUGGCACGCAAGUUUCUACCGGGCACCGUAAAUGUCCGACUGGAGCCGUUCGGGCGGCUAUAAACAGACCUCAGGCCCGAAGCGUGGCGGCACCUGCCGCCGGUGGUAAAAAAGAUCGGAAGAGCACACGUCU

Variants of: B1
Experiment: aptazyme ON/OFF ratio, guanine; higher = stronger switching; co-transcriptional cleavage with and without guanine

First: U7A G9U C12G C13U
Second: U7A G9C U11C C12A C13A
The “aptazyme ON/OFF ratio” value of the first is higher: 1.3 for the first, 1.06 for the second.

Compared with U7A G9C U11C C12A C13U, U7A G9C U11C C12A C13G is lower in “aptazyme ON/OFF ratio” value: 1.08 for the first, 1.05 for the second.

First: U7A G9U C12U C13A
Second: U7A G9U C12U C13U
The “aptazyme ON/OFF ratio” value of the first is lower: 1.19 for the first, 1.21 for the second.

Compared with U7A G9U C12U C13G, U7A G9U U10C U11G C12A C13G is higher in “aptazyme ON/OFF ratio” value: 1.16 for the first, 1.2 for the second.

Compared with U7A G9U U10C U11G C12A C13U, U7A G9U U10C U11G C12A C13A is lower in “aptazyme ON/OFF ratio” value: 1.11 for the first, 1.05 for the second.

Compared with U7A G9U U10C U11G C12A, U7A G9U U10C U11G C12G is higher in “aptazyme ON/OFF ratio” value: 1.02 for the first, 1.09 for the second.

First: U7A G9U U10C U11G C12U
Second: U7A G9U U10A C12A
The “aptazyme ON/OFF ratio” value of the first is lower: 1.34 for the first, 1.47 for the second.

Going from U7A G9U U10A C12U to U7A G9U U10A C12G, the “aptazyme ON/OFF ratio” value rises from 1.22 to 1.28.

Going from U7A G9U U10C U11A C12G C13U to U7A G9U U10C U11A C12G C13A, the “aptazyme ON/OFF ratio” value rises from 1.12 to 1.13.

Compared with U7A G9U U10C U11A C12G C13G, U7A G9C U11C C12A is lower in “aptazyme ON/OFF ratio” value: 1.14 for the first, 1.09 for the second.

First: U7A G9C U11C C12G
Second: U7A G9C U11C C12U
The “aptazyme ON/OFF ratio” value of the first is lower: 1.06 for the first, 1.09 for the second.

Going from U7A G9C U11C C13A to U7A G9C U11C C13U, the “aptazyme ON/OFF ratio” value falls from 1.04 to 1.02.

Compared with U7A G9C U11C C13G, U7A G9C U10C U11A C12A is higher in “aptazyme ON/OFF ratio” value: 1.04 for the first, 1.06 for the second.

Compared with U7A G9C U10C U11A C12U, U7A G9C U10C U11A C12G is higher in “aptazyme ON/OFF ratio” value: 1.04 for the first, 1.1 for the second.

Compared with U7A G9C U11G C12U C13A, U7A G9C U11G C12U C13U is lower in “aptazyme ON/OFF ratio” value: 1.42 for the first, 1.32 for the second.

Going from U7A G9C U11G C12U C13G to U7A G9C U10G U11G, the “aptazyme ON/OFF ratio” value falls from 1.36 to 1.06.

U7A G9C U10G U11A and U7A G9C U10G U11C are the same in “aptazyme ON/OFF ratio” value: 1.03 for the first, 1.03 for the second.

Going from U7A G9C U10G U11G C12U to U7A G9C U10G U11G C12G, the “aptazyme ON/OFF ratio” value rises from 1.14 to 1.16.

First: U7A G9C U10G U11G C12A
Second: U7A G9U C12A
The “aptazyme ON/OFF ratio” value of the first is higher: 1.11 for the first, 0.896 for the second.

Going from U7A G9U C12U to U7A G9U C12G, the “aptazyme ON/OFF ratio” value rises from 1.34 to 1.39.

First: U7A G9U U10C U11C C13U
Second: U7A G9U U10C U11C C13A
The “aptazyme ON/OFF ratio” value of the first is higher: 1.02 for the first, 1.01 for the second.

Compared with U7A G9U U10C U11C C13G, U7A G9C U10A U11G C12A C13G is higher in “aptazyme ON/OFF ratio” value: 1.04 for the first, 1.07 for the second.

Compared with U7A G9C U10A U11G C12A C13A, U7A G9C U10A U11G C12A C13U is lower in “aptazyme ON/OFF ratio” value: 1.11 for the first, 1.05 for the second.

First: U7A G9C U10C C12A C13U
Second: U7A G9C U10C C12A C13A
The “aptazyme ON/OFF ratio” value of the first is lower: 1.04 for the first, 1.07 for the second.

First: U7A G9C U10C C12A C13G
Second: U7A G9C U10C U11C C12A
The “aptazyme ON/OFF ratio” value of the first is higher: 1.04 for the first, 1.01 for the second.

Compared with U7A G9C U10C U11C C12G, U7A G9C U10C U11C C12U is higher in “aptazyme ON/OFF ratio” value: 1.03 for the first, 1.04 for the second.

Going from U7A G9C U10G U11A C13U to U7A G9C U10G U11A C13G, the “aptazyme ON/OFF ratio” value rises from 1.05 to 1.06.

First: U7A G9C U10G U11A C13A
Second: U7A G9C U11A C12A C13A
The “aptazyme ON/OFF ratio” value of the first is lower: 1.02 for the first, 1.03 for the second.

First: U7A G9C U11A C12A C13G
Second: U7A G9C U11A C12A C13U
The “aptazyme ON/OFF ratio” value of the first is lower: 1.05 for the first, 1.11 for the second.

Compared with U7A G9U U10A U11G C13U, U7A G9U U10A U11G C13G is lower in “aptazyme ON/OFF ratio” value: 1.21 for the first, 1.07 for the second.

Compared with U7A G9U U10A U11G C13A, U7A G9U U10C U11C C12U C13A is lower in “aptazyme ON/OFF ratio” value: 1.11 for the first, 1.06 for the second.

Compared with U7A G9U U10C U11C C12U C13U, U7A G9U U10C U11C C12U C13G is lower in “aptazyme ON/OFF ratio” value: 1.07 for the first, 1.02 for the second.

Going from U7A G9U U10A U11C C13G to U7A G9U U10A U11C C13A, the “aptazyme ON/OFF ratio” value rises from 1.07 to 1.09.

Going from U7A G9U U10A U11C C13U to U7A G9U U10A U11A C12G C13U, the “aptazyme ON/OFF ratio” value rises from 1.02 to 1.19.

Going from U7A G9U U10A U11A C12G C13G to U7A G9U U10A U11A C12G C13A, the “aptazyme ON/OFF ratio” value falls from 1.25 to 1.11.

Compared with U7A G9C U10C U11C C13U, U7A G9C U10C U11C C13A is lower in “aptazyme ON/OFF ratio” value: 1.03 for the first, 1.01 for the second.

First: U7A G9C U10C U11C C13G
Second: U7A G9U C13A
The “aptazyme ON/OFF ratio” value of the first is lower: 1.01 for the first, 1.29 for the second.

Going from U7A G9U C13U to U7A G9U C13G, the “aptazyme ON/OFF ratio” value falls from 1.35 to 1.05.

Going from U7A G9C U10G U11G C12U C13G to U7A G9C U10G U11G C12U C13U, the “aptazyme ON/OFF ratio” value rises from 1.12 to 1.16.

Compared with U7A G9C U10G U11G C12U C13A, U7A G9U U10C U11G C12G C13A is higher in “aptazyme ON/OFF ratio” value: 1.09 for the first, 1.14 for the second.

Going from U7A G9U U10C U11G C12G C13G to U7A G9U U10C U11G C12G C13U, the “aptazyme ON/OFF ratio” value falls from 1.16 to 1.11.

In the case of U7A G9U U10C U11G C12U C13A, the “aptazyme ON/OFF ratio” value is reported as 1.15.
